Reference: patent US20250277054A1 (WUXI BIOLOGICS IRELAND, published 2025)
Like-named read-outs stand apart in the source and are kept apart here.

Tests used:
[1] = target: T1, human PSMA on human prostate cancer cells (LNCaP, C4-2, 22Rv1) (human, UniProt Q04609 1-750); experiment: cell-based or functional assay
[2] = target: T1, human PSMA on human prostate cancer …; experiment: cell-based or functional assay; remark: listed apart in the source
[3] = target: T2, Human PSMA.ECD.His (Acro) (human, UniProt Q04609 44-750); experiment: ELISA, coated human PSMA protein (His tag)
T2 construct: extracellular domain; Bought protein with His tag; also called human PSMA ECD protein; Human PSMA/FOLH1 protein, His tag
T2 sequence (Q04609 44-750): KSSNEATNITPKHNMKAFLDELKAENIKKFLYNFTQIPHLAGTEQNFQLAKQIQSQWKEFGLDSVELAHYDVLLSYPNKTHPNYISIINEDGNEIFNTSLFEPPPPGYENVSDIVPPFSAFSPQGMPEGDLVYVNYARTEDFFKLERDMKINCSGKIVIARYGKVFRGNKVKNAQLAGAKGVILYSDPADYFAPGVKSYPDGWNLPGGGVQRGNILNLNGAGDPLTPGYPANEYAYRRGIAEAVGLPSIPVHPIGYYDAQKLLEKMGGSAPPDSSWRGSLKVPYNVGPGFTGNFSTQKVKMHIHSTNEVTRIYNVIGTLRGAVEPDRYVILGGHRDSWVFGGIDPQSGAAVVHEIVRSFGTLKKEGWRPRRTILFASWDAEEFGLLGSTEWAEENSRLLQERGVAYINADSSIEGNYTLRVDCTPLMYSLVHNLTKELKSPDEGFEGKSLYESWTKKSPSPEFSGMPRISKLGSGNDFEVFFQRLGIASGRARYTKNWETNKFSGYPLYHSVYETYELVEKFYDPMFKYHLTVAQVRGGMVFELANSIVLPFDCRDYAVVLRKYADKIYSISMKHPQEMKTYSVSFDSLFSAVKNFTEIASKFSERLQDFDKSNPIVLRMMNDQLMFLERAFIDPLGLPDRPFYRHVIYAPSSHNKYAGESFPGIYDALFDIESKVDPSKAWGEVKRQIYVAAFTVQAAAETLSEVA
Experimental: (§1) Briefly, 1 μg/mL human PSMA protein (His tag) were coated onto wells in ELISA plate in coating buffer at 4° C. for 16 hours. After washing the plate with 1×PBST once, the plate was blocked by using 200 μL/well 2% BSA for one hour. After washing the plate for three times with 1×PBST, various concentrations of antibodies diluted in 2% BSA (5-fold serially diluted from 200 nM to 0.004096 pM) were added to the wells and the plate was incubated for one hour at ambient temperature. After washing the plate three times with 1×PBST, Goat anti-human-IgG-Fc-HRP (at 1:5000 dilution) was added into wells and incubated for one hour. After washing six times with 1×PBST, 100 μL/well of TMB substrate solution was added into wells and incubated for 5 minutes in dark and then 100 μL/well of 2M HCl was added into wells to stop the reaction. The relative light unit (RLU) was measured at OD₄₅₀ and OD₅₄₀ by SPECTRAMAX M5E. The binding EC₅₀ was calculated by GraphPad Prism 7 software by plotting antibody concentration (x-axis) versus OD₄₅₀₋₅₄₀ (y-axis) and analyzing as: Nonlinear regression (curve fit)-log (agonist) vs. response-Variable slope (four parameters).

[4] = target: T1, human PSMA on human prostate cancer …; experiment: flow cytometry on 22Rv1 cells (PSMA low)
Experimental: (§2) After washing twice with 1×PBS/1% BSA/0.1 mM EDTA, Alexa fluor 647-labeled goat anti-human IgG Fc (at 1:500 dilution) was added and the plate was incubated at 4° C. for half an hour in dark. After washing twice with 1×PBS/1% BSA/0.1 mM EDTA, cells were re-suspended in 1×PBS/1% BSA/0.1 mM EDTA, and mean fluorescence intensity (MFI) was measured by a flow cytometer and analyzed by FLOWJO. The binding EC₅₀ was calculated by GraphPad Prism 7 software by plotting antibody concentration (x-axis) versus […] (y-axis) and analyzing as: Nonlinear regression (curve fit)-log (agonist) vs. response-Variable slope (four parameters).

[5] = target: T1, human PSMA on human prostate cancer …; experiment: flow cytometry on C4-2 cells (PSMA high)
Experimental: as §2

[6] = target: T1, human PSMA on human prostate cancer …; experiment: flow cytometry on LNCaP cells (PSMA high)
Experimental: as §2

[7] = target: T2, Human PSMA.ECD.His (Acro); experiment: ELISA, coated human PSMA protein (His tag); remark: listed apart in the source
Experimental: as §1

[8] = target: T3, Mouse PSMA.ECD.His (Acro) (mouse, UniProt O35409 45-752); experiment: ELISA, coated mouse PSMA protein (His tag)
T3 construct: extracellular domain; Bought protein with His tag; also called mouse PSMA protein (His tag); Mouse PSMA/FOLH1 protein, His tag
T3 sequence (O35409 45-752): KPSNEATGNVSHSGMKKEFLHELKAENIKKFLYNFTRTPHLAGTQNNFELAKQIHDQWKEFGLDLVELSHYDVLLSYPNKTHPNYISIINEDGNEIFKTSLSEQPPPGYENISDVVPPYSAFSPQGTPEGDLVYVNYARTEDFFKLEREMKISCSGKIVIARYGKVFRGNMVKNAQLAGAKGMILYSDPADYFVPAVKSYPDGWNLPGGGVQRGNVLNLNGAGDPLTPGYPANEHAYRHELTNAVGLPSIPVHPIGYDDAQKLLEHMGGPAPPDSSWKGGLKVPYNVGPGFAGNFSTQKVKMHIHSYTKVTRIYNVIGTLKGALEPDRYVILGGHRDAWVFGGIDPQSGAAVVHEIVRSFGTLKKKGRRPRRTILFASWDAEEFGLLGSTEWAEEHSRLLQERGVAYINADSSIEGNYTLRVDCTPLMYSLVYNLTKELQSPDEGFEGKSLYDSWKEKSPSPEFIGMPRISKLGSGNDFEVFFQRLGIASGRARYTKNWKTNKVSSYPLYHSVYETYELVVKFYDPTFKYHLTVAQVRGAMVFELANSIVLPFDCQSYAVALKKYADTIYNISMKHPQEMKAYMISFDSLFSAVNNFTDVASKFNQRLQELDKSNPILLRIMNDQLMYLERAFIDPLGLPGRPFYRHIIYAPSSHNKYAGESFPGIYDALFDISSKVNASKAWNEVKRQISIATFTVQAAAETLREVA
Experimental: (§3) Briefly, 1 μg/mL cynomolgus PSMA protein (His tag) and 2 μg/mL mouse PSMA protein (His tag) were coated onto wells in an ELISA plate in coating buffer at 4° C. for 16 hours. After washing plate with 1×PBST once, the plate was blocked by using 200 μL/well 2% BSA for one hour. […] After washing three times with 1×PBST, Goat anti-human-IgG-Fc-HRP (at 1:5000 dilution) was added and incubated for one hour. After washing six times with 1×PBST, 100 μL/well of TMB substrate solution was added into wells and incubated for 5 minutes in dark and then 100 μL/well of 2M HCL were added into wells to stop the reaction. The relative light unit (RLU) was measured at OD₄₅₀ and OD₅₄₀ by SPECTRAMAX M5E. EC₅₀ was determined as described above.

[9] = target: T4, full-length cynomolgus PSMA on Flp-in CHO cells (WBP3xx042-FlpinCHO.cPro1.B7) (cynomolgus, UniProt A0A2K5VNZ0 1-750); experiment: flow cytometry on FlpInCHO-cyno PSMA cells
T4 construct: whole, on cells; also called Cyno PSMA+ CHO cells; FlpInCHO-cyno PSMA
Experimental: WBP3xx042-FlpinCHO.cPro1.B7 (5×10⁴ cells) was incubated with various concentrations of antibodies 4° C. for one hour. After washing twice with 1×PBS/1% BSA/0.1 mM EDTA, secondary antibody, Alexa fluor 647-labeled goat anti-human IgG Fc, was added and the plate was incubated at 4° C. for half an hour in dark. After washing twice with 1×PBS/1% BSA/0.1 mM EDTA, cells were re-suspended in 1×PBS/1% BSA/0.1 mM EDTA. MFI and EC₅₀ were determined as described above.

[10] = target: T5, Cyno PSMA.ECD.His (Acro) (cynomolgus, UniProt A0A2K5VNZ0 44-750); experiment: ELISA, coated cynomolgus PSMA protein (His tag)
T5 construct: extracellular domain; Bought protein with His tag; also called cynomolgus PSMA ECD protein; Cynomolgus PSMA/FOLH1 protein, His tag
Experimental: as §3

[11] = target: T5, Cyno PSMA.ECD.His (Acro); experiment: ELISA, coated cynomolgus PSMA protein (His tag); remark: listed apart in the source
Experimental: as §3

[12] = target: T6, Human CD3δ & CD3ε heterodimer protein (Flag & His Tag) (human, UniProt P04234 22-105; P07766 23-126); experiment: SPR (Biacore 8K), antibody captured by anti-human IgG Fc, CD3δ & CD3ε heterodimer injected, 1:1 model
T6 construct: Bought heterodimer with Flag and His tags
T6 sequence (P04234 22-105, stated change not applied, form in doubt, chain 1 of 2): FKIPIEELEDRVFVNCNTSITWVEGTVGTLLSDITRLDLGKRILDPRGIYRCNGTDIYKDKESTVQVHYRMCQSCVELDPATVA
T6 sequence (P07766 23-126, stated change not applied, form in doubt, chain 2 of 2): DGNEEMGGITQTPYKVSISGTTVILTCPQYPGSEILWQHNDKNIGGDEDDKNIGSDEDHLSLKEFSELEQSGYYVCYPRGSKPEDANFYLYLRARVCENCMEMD
Experimental: Each antibody was captured on an anti-human IgG Fc antibody immobilized CM5 sensor chip (Cytiva). human CD3δ & CD3ε heterodimer at different concentrations were injected over the sensor chip at a flow rate of 30 μL/min for an association phase of 120 s, followed by 240 s dissociation. The chip was regenerated by 10 mM glycine (pH 1.5) after each binding cycle.
The sensorgrams of blank surface and buffer channel were subtracted from the test sensorgrams. The experimental data was fitted by 1:1 binding model. Molecular weight of 31 kDa was used to calculate the molar concentration of human CD3δ & CD3ε heterodimer.

[13] = target: T7, Biotinylated Human PSMA/FOLH1 Protein, His, Avitag (human, UniProt Q04609 44-750, biotin label (Avitag)); experiment: SPR (Biacore 8K), biotinylated human PSMA captured on streptavidin chip, antibody injected, single-cycle, 1:1 model
T7 construct: Bought protein; also called Human PSMA Protein (His Tag & biotin label)
T7 sequence (Q04609 44-750 limits assumed): as the sequence (Q04609 44-750) above
Experimental: Biotinylated human PSMA was captured on a streptavidin-immobilized CM5 sensor chip (Cytiva). Antibodies at different concentrations were injected over the sensor chip in an injection type of single-cycle at a flow rate of 30 μL/min for an association phase of 180 s, followed by 600-3600 s dissociation. The chip was then regenerated by 10 mM glycine (pH1.5) at the last binding cycle.
The sensorgrams of the blank surface and buffer channel were subtracted from the test sensorgrams. The experimental data were fitted by 1:1 binding model.

T1 sequence (Q04609 whole entry): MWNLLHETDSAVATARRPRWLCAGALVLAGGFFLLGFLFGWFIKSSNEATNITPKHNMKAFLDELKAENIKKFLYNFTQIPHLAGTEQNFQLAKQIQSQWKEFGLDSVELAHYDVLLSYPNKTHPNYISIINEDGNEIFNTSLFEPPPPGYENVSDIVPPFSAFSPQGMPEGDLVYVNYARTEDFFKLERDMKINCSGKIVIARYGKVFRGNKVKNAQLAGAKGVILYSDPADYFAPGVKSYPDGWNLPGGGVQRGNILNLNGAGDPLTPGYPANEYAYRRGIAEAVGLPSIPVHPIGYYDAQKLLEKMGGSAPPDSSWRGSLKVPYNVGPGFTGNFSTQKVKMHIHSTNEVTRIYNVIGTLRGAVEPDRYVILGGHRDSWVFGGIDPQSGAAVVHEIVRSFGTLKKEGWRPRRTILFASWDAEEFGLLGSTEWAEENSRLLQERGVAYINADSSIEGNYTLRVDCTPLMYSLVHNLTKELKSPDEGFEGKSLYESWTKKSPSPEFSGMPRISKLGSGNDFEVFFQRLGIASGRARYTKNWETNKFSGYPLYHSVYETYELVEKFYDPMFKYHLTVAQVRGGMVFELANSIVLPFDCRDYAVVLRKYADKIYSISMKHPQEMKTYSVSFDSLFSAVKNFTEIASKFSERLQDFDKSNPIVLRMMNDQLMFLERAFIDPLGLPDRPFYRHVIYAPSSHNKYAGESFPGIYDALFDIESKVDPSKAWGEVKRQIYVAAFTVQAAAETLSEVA

B1: W308051-T3U5.E17-61.uIgG4V322 (bispecific antibody)
heavy 1: QVQLVQSGAEVKKPGSSVKVSCKASGFAFTDYYIHWVRQAPGQGLEWMGWISPGNVNTKYNENFKGRVTITADKSTSTAYMELSSLRSEDTAVYYCARDGYSLYYFDYWGQGTLVTVLEDLKNVFPPEVAVFEPSECEISHTQKATLVCLATGFYPDHVELSWWVNGKEVHSGVCTDPQPLKEQPALQDSRYALSSRLRVSATFWQNPRNHFRCQVQFYGLSENDEWTQDRAKPVTQIVSAEAWGRYGPPCPPCPAPEAAGGPSVFLFPPKPKDTLMISRTPEVTCVVVDVSQEDPEVQFNWYVDGVEVHNAKTKPREEQFNSTYRVVSVLTVLHQDWLNGKEYKCKVSNKGLPSSIEKTISKAKGQPREPQVYTLPPCQEEMTKNQVSLWCLVKGFYPSDIAVEWESNGQPENNYKTTPPVLDSDGSFFLYSRLTVDKSRWQEGNVFSCSVMHEALHNHYTQKSLSLSLG
light 1: DIVMTQSPDSLAVSLGERATINCKSSQSLLNSRTRKNYLAWYQQKPGQPPKLLIYWASTRQSGVPDRFSGSGSGTDFTLTISSLQAEDVAVYYCTQSHTLRTFGGGTKVEIKPDIQNPDPAVYQLRDSKSSDKSVCLFTDFDSQTQVSQSKDSDVYITDKCVLDMRSMDFKSNSAVAWSQKSDFACANAFQNSIIPEDTFFCS
heavy 2: EVQLVQSGAEVKKPGESLKISCKASGYSFTTYWIGWVRQMPGKGLELMGIIYPYDSDTRYSPSFQGQVTISADKSINTAYLQWSSLKASDTAMYYCARITGGYLFDYWGQGILVTVSSASTKGPSVFPLAPCSRSTSESTAALGCLVKDYFPEPVTVSWNSGALTSGVHTFPAVLQSSGLYSLSSVVTVPSSSLGTKTYTCNVDHKPSNTKVDKRVESKYGPPCPPCPAPEAAGGPSVFLFPPKPKDTLMISRTPEVTCVVVDVSQEDPEVQFNWYVDGVEVHNAKTKPREEQFNSTYRVVSVLTVLHQDWLNGKEYKCKVSNKGLPSSIEKTISKAKGQPREPQVCTLPPSQEEMTKNQVSLSCAVKGFYPSDIAVEWESNGQPENNYKTTPPVLDSDGSFFLVSRLTVDKSRWQEGNVFSCSVMHEALHNHYTQKSLSLSLG
light 2: QSALTQPPSASGSPGQSVTISCTGTSSDVGGYNYVSWYQQHPGKAPKLMIYEVTKRPSGVPDRFSGSKSGNTASLTVSGLQAEDEADYYCTSYAGSNKYVFGTGTKVTVLGQPKAAPSVTLFPPSSEELQANKATLVCLISDFYPGAVTVAWKADSSPVKAGVETTTPSKQSNNKYAASSYLSLTPEQWKSHKSYSCQVTHEGSTVEKTVAPTECS
notes: CD3xPSMA bispecific; also called WBP308051
With B1 the “IC50 of T cell cytotoxicity, CD3+ T + C4-2” value [1] was 0.082 nM, the “IC50 of T cell cytotoxicity, CD3+ T + LNCaP” value [1] was 0.037 nM and the “EC50 of IFN-γ release, CD3+ T + C4-2” value [2] was about 0.16 nM. The EC50 [3] was 0.027 nM, the EC50 [4] was 0.29 nM and the EC50 [5] was 1.48 nM. For the same binder, the EC50 [6] was 0.58 nM, the EC50 [7] was 0.03 nM and the EC50 [8] was 1.34 nM. For the same binder, the EC50 [9] was 3.2 nM, the EC50 [10] was 0.045 nM and the EC50 [11] was 0.05 nM. For the same binder, the Kd [12] was 60.2 nM, the koff [12] was 0.0331 s⁻¹ and the kon [12] was 550000 M⁻¹ s⁻¹. For the same binder, the Kd [13] was 0.0158 nM, the koff [13] was 1.39e-05 s⁻¹ and the kon [13] was 880000 M⁻¹ s⁻¹.
